Laboratory results from PMC5974088.

How the values were obtained:
Test in all cases: ITC; 200-400 μM 53BP1 Tudor domain (wt or mutant) injected into 200 μl of 22-44 μM TIRR or Nudt16 (wt or mutant); 25 °C; 20 mM Tris-HCl pH 7.5, 150 mM NaCl; single-site binding model
[1] = biological target: TIRR H106W (not stated (human or mouse cDNA cloned)) (UniProt Q8VHN8)
[2] = biological target: Nudt16 ^H105 with R5, L7, V100 substituted by TIRR residues K10, I12, L101 (H. sapiens) (UniProt Q96DE0)
[3] = biological target: TIRR I12A (not stated (human or mouse cDNA cloned)) (UniProt Q8VHN8)
[4] = biological target: TIRR H106K (not stated (human or mouse cDNA cloned)) (UniProt Q8VHN8)
[5] = biological target: TIRR H106Q (not stated (human or mouse cDNA cloned)) (UniProt Q8VHN8)
[6] = biological target: Nudt16 ^W105 (H. sapiens) (UniProt Q96DE0)
[7] = biological target: TIRR L20A (not stated (human or mouse cDNA cloned)) (UniProt Q8VHN8)
[8] = biological target: Nudt16 ^H105 (H. sapiens) (UniProt Q96DE0)
[9] = biological target: TIRR I12G (not stated (human or mouse cDNA cloned)) (UniProt Q8VHN8)
[10] = biological target: TIRR H106R (not stated (human or mouse cDNA cloned)) (UniProt Q8VHN8)
[11] = biological target: TIRR H106A (not stated (human or mouse cDNA cloned)) (UniProt Q8VHN8)
[12] = biological target: TIRR H106Y (not stated (human or mouse cDNA cloned)) (UniProt Q8VHN8)
[13] = biological target: TIRR K10E (not stated (human or mouse cDNA cloned)) (UniProt Q8VHN8)
[14] = biological target: TIRR P105A (not stated (human or mouse cDNA cloned)) (UniProt Q8VHN8)
[15] = biological target: TIRR H106Δ (not stated (human or mouse cDNA cloned)) (UniProt Q8VHN8)

53BP1 tandem Tudor domain (1484-1603), sequence (Q12888 other isoform, or with tags, fused parts or gaps): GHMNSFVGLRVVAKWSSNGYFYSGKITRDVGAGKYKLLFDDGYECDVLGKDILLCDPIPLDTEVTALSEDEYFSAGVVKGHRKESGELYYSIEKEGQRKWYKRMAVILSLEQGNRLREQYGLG

Kd [1]: 0.5 µM | Kd [2]: 1 µM | Kd [3]: 4.9 µM | Kd [4]: 6.8 µM | Kd [5]: 5.1 µM | Kd [6]: 3.6 µM | Kd [7]: 25.5 µM | Kd [8]: 7.1 µM | Kd [9]: 38.3 µM | Kd [10]: 1.9 µM | Kd [11]: 3.9 µM | Kd [12]: 1.4 µM | Kd [13]: 20.4 µM | Kd [14]: 4.3 µM | Kd [15]: 17.8 µM
Substance: 53BP1 tandem Tudor domain (1484-1603) (from UniProt Q12888 1484-1603) (domain or fragment)
